Reference: patent US8772229B2, “Methods for synthesis and uses of inhibitors of ghrelin O-acyltransferase as potential therapeutic agents for obesity and diabetes” (The Johns Hopkins University, priority 2008, dated 2014)

Key:
[1] = test system: HEPG2 cell; test: Cell viability assay (LIVE/DEAD), HepG2 cells; type: cell-based, human; conditions: 10 μM, 24 hr incubation
Method: (§1) The viability of the HEL cell line and the human immortalized hepatocyte cell line HepG2 (ATCC, Manassas, Va.) treated with the varying concentrations of GO-CoA-Tat was determined using a LIVE/DEAD viability assay kit (Molecular Probes). […] were incubated with two probes, 2 μM calcein-AM (green color) for 30 min and 4 μM ethidium homodimer-1 (EtdD-1, bright red color) for 10 min, for intracellular esterase activity and plasma membrane integrity, respectively. Calcein-AM was excited using the 500 nm laser line, and the emitted fluorescence was detected through a 535 nm long-pass filter. EtdD-1 was excited using the 514 nm laser line, and the emitted fluorescence was detected through a 550 nm long-pass filter. Red fluorescent (EtdD-1) cells were counted as dead, and green fluorescent (Calcein-AM) were counted as viable. In cases of dual partial red and green staining, cells were counted as dead.

[2] = Blood chemistries and blood cell counts after 12 days of treatment; type: in vivo, mice; conditions: 12 day treatment
From the text: To investigate the potential for GO-CoA-Tat induced generalized toxicity or organ damage as a source of weight loss, we assessed the blood chemistries and blood cell counts in the 12 day GO-CoA-Tat treated animals.

[3] = test system: HEL cell; test: Cell viability assay (LIVE/DEAD), HEL cells; type: cell-based, human; conditions: 10 μM, 24 hr incubation
Method: as §1

[4] = target: T1, serotonin N-acetyltransferase (Ovis aries, UniProt Q29495); test: Acetyltransferase specificity assay (α-KGDH coupled), AANAT; type: biochemical
T1 construct: Recombinant acetyltransferase domains and histone tail peptides were prepared as described previously (38-40); made in house
T1 sequence (Q29495 35-196 limits assumed): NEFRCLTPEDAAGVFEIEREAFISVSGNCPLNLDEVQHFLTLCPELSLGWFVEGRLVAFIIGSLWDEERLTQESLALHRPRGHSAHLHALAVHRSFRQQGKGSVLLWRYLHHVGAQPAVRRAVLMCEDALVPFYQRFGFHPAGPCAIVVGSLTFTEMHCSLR
Method: (§2) The specificity of GO-CoA-Tat with the acetyltransferases p300, PCAF, and AANAT was measured using an α-ketoglutarate dehydrogenase (α-KGDH) coupled spectrophotometric assay (37). Recombinant acetyltransferase domains and histone tail peptides were prepared as described previously (38-40). The production of CoASH by the acetyltransferase is coupled to the formation of NADH, which is monitored at 340 nm (ε340=6230 M^−1 cm^−1) in a Beckman DU-640 spectrophotometer. All reactions contain 200 μM thiamine pyrophosphate, 5 mM MgCl2, 1 mM DTT, 50 μg/mL BSA, 200 μM NAD, 2.4 mM α-ketoglutarate, 10 μM GO-CoA-Tat, and 50 μM acetyl-CoA. Reactions with p300 were performed in 100 mM HEPES, pH 7.9, and contain 0.1 units α-KGDH and 200 μM H4-15, a 15-mer peptide substrate based on the sequence of the histone H4 tail. p300 reactions are incubated at 30° C. prior to initiation with addition of 100 nM p300 and take place at 30° C. Reactions with PCAF are performed in 100 mM HEPES, pH 7.9, and contain 0.037 units α-KGDH and 100 μM H3-20, a 20-mer peptide substrate based on the sequence of the histone H3 tail. PCAF reactions are incubated at 30° C. for 10 minutes prior to initiation with addition of 100 nM PCAF and take place at 30° C. Reactions with AANAT are performed in 100 mM NH4OAc, pH 6.8, and contain 0.1 units α-KGDH and 200 μM tryptamine. […]

[5] = target: T2, p300 HAT (Homo sapiens, UniProt Q09472); test: Acetyltransferase specificity assay (α-KGDH coupled), p300; type: biochemical
T2 construct: Recombinant acetyltransferase domains and histone tail peptides were prepared as described previously (38-40); made in house
T2 sequence (Q09472 1287-1663 limits assumed): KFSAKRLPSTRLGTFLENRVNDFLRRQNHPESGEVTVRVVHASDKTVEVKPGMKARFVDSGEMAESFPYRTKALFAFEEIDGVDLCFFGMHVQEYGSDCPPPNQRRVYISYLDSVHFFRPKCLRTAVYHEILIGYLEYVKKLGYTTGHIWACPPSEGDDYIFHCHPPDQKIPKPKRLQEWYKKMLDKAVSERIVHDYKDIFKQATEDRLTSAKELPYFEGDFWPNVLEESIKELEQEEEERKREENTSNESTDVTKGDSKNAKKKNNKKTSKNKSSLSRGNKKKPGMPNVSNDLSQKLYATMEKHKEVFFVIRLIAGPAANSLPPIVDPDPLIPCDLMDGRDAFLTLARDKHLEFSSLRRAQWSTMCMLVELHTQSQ
Method: as §2

[6] = target: T3, PCAF HAT (Homo sapiens, UniProt Q92831); test: Acetyltransferase specificity assay (α-KGDH coupled), PCAF; type: biochemical
T3 construct: Recombinant acetyltransferase domains and histone tail peptides were prepared as described previously (38-40); made in house
T3 sequence (Q92831 503-651 limits assumed): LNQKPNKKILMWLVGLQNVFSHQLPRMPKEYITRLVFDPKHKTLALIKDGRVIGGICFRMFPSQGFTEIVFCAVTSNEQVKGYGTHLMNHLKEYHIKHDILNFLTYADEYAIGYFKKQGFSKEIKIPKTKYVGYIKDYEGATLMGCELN
Method: as §2

Structure (SMILES): CCCCCCC(SCCNC(=O)CCNC(=O)[C@H](O)C(C)(C)COP(=O)(O)OP(=O)(O)OC[C@H]1O[C@@H](n2cnc3c(N)ncnc32)[C@H](O)[C@@H]1OP(=O)(O)O)C(=O)NC[C@H](NC(=O)[C@H](CO)NC(=O)CN)C(=O)N[C@@H](Cc1ccccc1)C(=O)N[C@@H](CC(C)C)C(=O)N[C@@H](CO)C(=O)N1CCC[C@H]1C(=O)N[C@@H](CCC(=O)O)C(=O)N[C@@H](Cc1c[nH]cn1)C(=O)N[C@@H](CCC(N)=O)C(=O)NCCCCCC(=O)N[C@@H](Cc1ccc(O)cc1)C(=O)NCC(=O)N[C@@H](CCCNC(=N)N)C(=O)N[C@@H](CCCCN)C(=O)N[C@@H](CCCCN)C(=O)N[C@@H](CCCNC(=N)N)C(=O)N[C@@H](CCCNC(=N)N)C(=O)N[C@@H](CCC(N)=O)C(=O)N[C@@H](CCCNC(=N)N)C(=O)N[C@@H](CCCNC(=N)N)C(=O)N[C@@H](CCCNC(=N)N)C(=O)O (some centres unmarked) [GO-CoA-Tat]
- HEPG2 cell viability [1]: non-toxic
- organ toxicity from blood chemistries and blood cell counts ([2]; 29 mg/kg IP daily): no evidence of liver, renal, pancreas, or bone marrow toxicities
- HDL ([2]; vs. D4-Tat): small but significant increases
- triglycerides ([2]; vs. D4-Tat): small but significant increases
- HEL cell viability [3]: non-toxic
- inhibition at 10 µM [4]: < 15%
- inhibition at 10 µM [5]: < 15%
- inhibition at 10 µM [6]: < 15%
